assay: yeast display, Sf9 membrane polyspecificity reagent, FACS + sequencing; frameworks hold sequencing errors
Summary of the method: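 Nanobodies from a synthetic yeast display library (Saccharomyces cerevisiae BJ5465), induced 36–48 hours with galactose, were stained 1 hour at 4 °C with 10% biotinylated, detergent-solubilized Sf9 membrane reagent, enriched on streptavidin microbeads, then FACS-sorted. Anti-HA (expression) and streptavidin (reagent binding) fluorescence set low and high (top ~1%) gates. Polyreactivity labels come from the gate of origin. Genes were colony-PCR amplified, MiSeq 2 × 250 sequenced and filtered by CDR length.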

| Sequence | polyreactivity (PSR sort gate) |
| --- | --- |
| QVHLVESGGGLVKAGGSLRLSCAASGLIFTQYSMGWYRQAPGTERELVAGITSSGGSTNYADSVKGRFTISRDNAKNTVYLQMNSLKPEDTAVYYCATRLGVLYDYWGQGTQVTVSS | low polyreactivity |
| QVHLVESGGGLVKAGGSLRLSCAASGSTFYANAMGWYRQAPGKEREFVASITWSGGSTYYADSVKGRFTISRDNAKNTVYLQMNSLKPEDTSVYYCAANIGHNGFDYWGQGTQVNVSS | low polyreactivity |
| QVHLVESGGGLVKAGGSLRLSCAASGSTKNYVMGWYRQAPGKERELVAAISRGSSTYYADSVKGRFTISRDNAKNTVYLQMNSLKPEDTAVYYCAARGPWQAPYDYWGQGTQVTVSS | high polyreactivity |
| QVHLVESGGGLVKAGGSLRLSCAASGSTKYYVMGWYRQAPGKERELVAAISRGSSTYYADSVKGRFTISRDNAKNTVYLQMNSLKPEDTAVYYCAARGPWQAPYDYWGQGTQVTVSS | high polyreactivity |
| QVHLVESGGGLVKAGGSLRLSCAASGSTSTLYAMGWYRQAPGKERELVAAISKSGGRTYYADSVKGRFTNSRDNAKNTVYLQMNSLKPEDTAVYYCNTVPGRYRTFDYWGQGTQVTVSS | high polyreactivity |
| QVHLVESGGGLVLAPASLRLSSPASGHNQGIYAMGWYRQAPGKEREFVAAISRGGGSTYYADSVKGRFTISRDNAKNTVYLQMNSLNPEDTAVYYCNAVRDRYGVFPYYYWGQGTQVTVSS | high polyreactivity |
| QVHLVESGGGLVPAGGSLRLSCPASGSIFYEYAMGWYRQPPGKERELVAAITVTSGSTYYADSVKGRFTISRDNAKNTVYLQMNSLKPEDTAVYYCASRIYHTYRFYYWGQGTQVTVSS | low polyreactivity |
| QVHLVESGGGLVQAGASHRLSCAASGSISKSYAMGWYRQAPGKERELVAAISWRGGSTYADSVKGRFTISRDNAKNTVYLQMNSLKPEDTAVYYCAATNYGTFWVGQSERYDYWGQGTQVNVSS | low polyreactivity |
| QVHLVESGGGLVQAGCSLRLRSAASGRIFSRNAMGRYRQAPGKERELVAAISTGGTTNYADSVKGRFTISRDNANNTVYLQMNSLKPEDTALYYCNAGLLRRRMDYWGQGTQVTVSS | high polyreactivity |
| QVHLVESGGGLVQAGCSLRLSCAASGSTIYRYAMGWYRQAPGKERELVASINGGDDTYYADSVKGRFTISRDNAKNNVYLQMTSLKPEDTAVYYCAAEVYGSWPFDTYYYWGQGTQVTVSS | high polyreactivity |
| QVHLVESGGGLVQAGGILRLSCAAFGFTFKSYAMVWYIQAPGKERELVAGITSSGGGTYYADSVKGRFTISRDNAKNTVYLQMNSLKPEDTAVYYCNTYSYLFSRYGYWGQGTQVTVSS | high polyreactivity |
| QVHLVESGGGLVQAGGILRLSCAASGFIFVRNAMGWYRQERGKEREFVAAINSSGGRTYYADSVKGRFTISRDNAKNTVYLQMNSLKPEDTAVYYCAARSQPKKFYYWGQGTQVTVSS | high polyreactivity |
| QVHLVESGGGLVQAGGILRLSCAASGFTFTSNAMGWYRQAPGKEREFVADISNIGGDTTYADSVKGRFTISRDNAKNTVYLQMNSLKPEDTAVYYCNADFAFIENDYWGQGTQVTVSS | low polyreactivity |
| QVHLVESGGGLVQAGGILRLSCPASGSTFVYYAMVWYRQAPGKERELVAAISRSGGNTYYAYSVKGRFTISRDNAKNTVYLQMNSLKQEDTAVYYCAARSYGVQYYYWGQGTQVTVSS | high polyreactivity |
| QVHLVESGGGLVQAGGRLRLSCAASGFTLRYYAMGWYRQAPGKESELVATINRSGASTYYADTVKGRFTISRDNAKNTVYLQMNSQKPEDTAVYYCKTATSRAYRYDYWGQGTQVTVSS | low polyreactivity |
| QVHLVESGGGLVQAGGRLRLSCAASGGTFYYNAMGRYRHATGKERELVAGITQSGGNTYYADSVKGRFTISRDNAKNTVYLHMNSLKPEDTVVYYCAARIRGTWKYGYWGQGTQVTVSS | low polyreactivity |
| QVHLVESGGGLVQAGGSHRLRCAASGRIFSGYAKGRYRQAPGKERELVAAITQSGGSTSYADSVKGRFTISRDNAKNTVYLQMIRLKPEDTAVYYCNVDDSTWIGAYRRYDYWGQGTQVTVSS | low polyreactivity |
| QVHLVESGGGLVQAGGSIRLSCAASGRTFAYNVKGWYIQAPGKVREVVAGISFGAGSTYYADSVKGRFTISRDNAKNTVYLQMNSLKPEDTAVYYCATGRRGTRYPRGYDYWGQGTQVTVSS | high polyreactivity |
| QVHLVESGGGLVQAGGSLRISCAASGIIFYTYARGWYRQAPGKERELVAAISRSGGSTYYADSVKGRFTISRDNAKYTVYLQMNSRKPEDTAVDYCAADSTYRSTIQDYYWGQGTQVSVSS | high polyreactivity |
| QVHLVESGGGLVQAGGSLRISCAASGSTFHGYAMGWYRQEPGKEMELVAAITSGDSTNYADSVKGRFTISRDNAKNTVYLQMNSLKPEDTAVYFCNAEGDSLLTGYWGYPPYWDTYDNWGQGTQVTVSS | low polyreactivity |
| QVHLVESGGGLVQAGGSLRISCAASGSTFVYYAMGWYRQAPGTERELVAAISVSGDSTYYADSVKGRFTISRDNAKNTVYLQMNSLKPEDTAVYYCATEVYWTVSYYGYDYYGGNYYYWGQGTQVTVSS | low polyreactivity |
| QVHLVESGGGLVQAGGSLRISCAASGYIFSYYAMGWYRQAPGKERELVASITSSGGSTYYADSVKGRFTISRDNAKNTVYLQMNSLKPEYTAEYYCNADVYDTYSPLGYYYWGQGTQVTVSS | low polyreactivity |

| Sequence | polyreactivity (PSR sort gate) |
| --- | --- |
| QVHLVESGGGLVQAGGSLRLICAASGFIFPRTAMGSYRQAPGKERELVAAISVSGGSTYYADSVKGRFTISRDYAKNTVYLQMNSLKPEDTAVYYCAKRTWDLRRTRHYYWGQGNQVTVSS | low polyreactivity |
| QVHLVESGGGLVQAGGSLRLICAASGRIFTKYAMGCYRQAPGKEREVVAAISYRGGSTYYADSVKGRFTISRDNAKNTVYLQMNILKPEDTAVYYCAAYATSTRYCYWGQGTQVTVSS | high polyreactivity |
| QVHLVESGGGLVQAGGSLRLICAASGRTFWYYAMGWYRQAPGKERELVAAITSGGSTNYADSVKRRFTISRDNAKNTVYLQMNILKPEDTAVYYCATDNPVFEYDYCGQGTQVTVSS | low polyreactivity |
| QVHLVESGGGLVQAGGSLRLRCAASGIIFKSYAMGWYRQAPGKERELVAAITKRGGSTYYADSVKGRFTISRDNAKNTVYLQMNSLKPEDTAVYDCAADDGVGNTDDYWGQGTQVTVSS | high polyreactivity |
| QVHLVESGGGLVQAGGSLRLRCAASGRIFPSNAMGWYRQAPWKERELVAGITWRRDSTYYADSVKGRFTISRDKAKNTVYLQMNSLKPEDTAVYYCAATFRYTKLYYWGQGTQVTVSS | low polyreactivity |
| QVHLVESGGGLVQAGGSLRLRCAASGYPFKRNDMGWYRHAPGKETQFVPAISKSGGSTYYADSVKGRFTISRDNAKNSVYLQRNSLKPEDTAVSYCAATRGLYRYWGRDKFDYWGQGTQVTVSS | low polyreactivity |
| QVHLVESGGGLVQAGGSLRLSCAACGSNLFVNTMGWYRQAPGKERELVAAISWIDGSTYYADSVKGRFTISRDNAKNSVYLHMNSLKPEDTAVYYCAASTYWREYDYWGQGTQVNVSS | low polyreactivity |
| QVHLVESGGGLVQAGGSLRLSCAASASTLGSNTMGWYRQAPGKERELVATISRRGGSTYYADSVKGRFTISRDNAKYTVYLQMNSLKPADTAVYYCAARPVYKFGSWGQGTQVTVSS | high polyreactivity |
| QVHLVESGGGLVQAGGSLRLSCAASGFIFAEYAMGWYRQEPGKERELVATINIGGSTYYADSVKGRFTISRDNAKNTVYLQMNSLKPEDTAVYYCAAEFWWGDGSQGIYDYDYWGQGSQVTVSS | low polyreactivity |
| QVHLVESGGGLVQAGGSLRLSCAASGFIFLGNAMGGYRQAPGKERELVAAISSGGSTYADSVKGRFTISRDNAKNTVYLQMNSLKPEDTAVYYCAVDRAFRAQNYHEYDYWGQGTQVTVSS | low polyreactivity |
| QVHLVESGGGLVQAGGSLRLSCAASGFIFRSYAMGWYRQAPGKEREFVAAITTRGTGTYYADSVKGRFTISRDNEKNTFYLQMNSLKPEDTAVYYCAARRGWGDDYWGQGTQVTVSS | high polyreactivity |
| QVHLVESGGGLVQAGGSLRLSCAASGFNFNKYALGWYRQAPGKERELVAAITIGGSTYYADSVKGRFTISRDNAKNTVYFQMNSLKPEDTAVYYCAAVQGKVRGGYYWGQGTQVTVSS | high polyreactivity |
| QVHLVESGGGLVQAGGSLRLSCAASGFTFDYYAMGWYRQAPGKERELVAAISWSGASTYYADSVKGRFTISRDNAKNTVYLQMNSLKPEDTAVYYCNRPKWYDGDYWGQGTQVTVSS | high polyreactivity |
| QVHLVESGGGLVQAGGSLRLSCAASGFTFIDYAMGWYRQAPGTERELVAAITTGTITYYADSVQGRFTISRDNAKNTVYLQMNSLKPEDTAVYYCAPTYSRRGGYRMEYWGQGTQVTVSS | low polyreactivity |
| QVHLVESGGGLVQAGGSLRLSCAASGFTFLKNAMVWNRQAPWKERELVAAITSSGGRTYYADSVKGRFTISRDNAKNTVYLQMNSLKPEDTAVYYCNKGPLPGYDYWGQGTQVTVSS | high polyreactivity |
| QVHLVESGGGLVQAGGSLRLSCAASGFTFLTNAMGWYRQAPGKERELVAAISQSGGRTYYADSVKGRFTISRDNAKNTVYLQMNSLKPEDTAVYYCAAGVRSTGRMDYWGQGTQVTVSS | high polyreactivity |
| QVHLVESGGGLVQAGGSLRLSCAASGFTFPYYAMGWYRQAPGKERELVATIRSGGSTYYADSVKGRFTISRDNAKNSVYLQMNSLKPEDTAVYYCAKYQGLYSYEKYGYWGQGTQVTVSS | low polyreactivity |
| QVHLVESGGGLVQAGGSLRLSCAASGFTFRWYAMGGDRQAPGKERALVAAIDSTDITNYADSVKGRFTISRDNAKNTVYLQMNSLKPEDTAVYYCAAELYPALYPFRISGTYGYWGQGTLVTVSS | high polyreactivity |
| QVHLVESGGGLVQAGGSLRLSCAASGFTFRYNAMGWYRQAPGKERELVAAISWSGGSTYYADSVKGRFTISRDNAKNTVYLQMNSLKPEDTAVYYCNVGWGRVYKSRYDYWGQGTQVTVSS | high polyreactivity |
| QVHLVESGGGLVQAGGSLRLSCAASGFTIASYDMGWYRQAPGKERELVAAISKGGGRTYYADSVKGRFTISRDNSKNTVYLQMNSLQPEDTAVYYCAAYAPYPRRAYDYWGQGTQVTVSS | low polyreactivity |
| QVHLVESGGGLVQAGGSLRLSCAASGFTYSPYVMGWSRQAPGKEWELVASISKRGGGTYYADSVKGRFTISRDNAKKTFYLQMNRLKPEDTAVYYCNVVTATAYQGVDYWGQGSQVTVSS | high polyreactivity |
